Experimental data from patent publication US20180339041A1 (Kyowa Kirin, published 2018).

T1: C-terminally FLAG-tagged rat Gas6 recombinant protein (rGas6-F) (rat, UniProt Q63772 28-674, limits assumed, gamma-carboxylated glutamic acid residues in the Gla domain (producer cells co-express rat VKOR and human GGCX); positions not given)
T1 construct: also called rat Gas6-F
T1 sequence (looked up): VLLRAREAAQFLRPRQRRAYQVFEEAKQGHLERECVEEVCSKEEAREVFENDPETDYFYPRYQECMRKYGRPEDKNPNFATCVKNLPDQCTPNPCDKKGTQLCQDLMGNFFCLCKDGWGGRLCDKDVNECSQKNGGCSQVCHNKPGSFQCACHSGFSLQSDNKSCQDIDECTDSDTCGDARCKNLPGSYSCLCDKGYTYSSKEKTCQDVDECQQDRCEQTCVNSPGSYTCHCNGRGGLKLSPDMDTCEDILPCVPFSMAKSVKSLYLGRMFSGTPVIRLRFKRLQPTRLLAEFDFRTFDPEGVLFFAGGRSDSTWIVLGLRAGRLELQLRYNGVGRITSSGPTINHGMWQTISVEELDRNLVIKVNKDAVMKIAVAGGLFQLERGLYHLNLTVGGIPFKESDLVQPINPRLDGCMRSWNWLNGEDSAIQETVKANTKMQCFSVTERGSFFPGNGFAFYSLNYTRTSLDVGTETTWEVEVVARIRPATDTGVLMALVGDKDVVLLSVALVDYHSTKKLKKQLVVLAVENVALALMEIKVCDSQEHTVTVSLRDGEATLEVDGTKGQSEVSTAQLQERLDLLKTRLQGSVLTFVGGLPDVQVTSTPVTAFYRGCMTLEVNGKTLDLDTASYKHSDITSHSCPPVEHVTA

T2: C-terminally FLAG-tagged human Gas6 recombinant protein (hGas6-F) (human, UniProt Q14393 31-678, gamma-carboxylated glutamic acid residues in the Gla domain (producer cells co-express rat VKOR and human GGCX); positions not given)
T2 sequence: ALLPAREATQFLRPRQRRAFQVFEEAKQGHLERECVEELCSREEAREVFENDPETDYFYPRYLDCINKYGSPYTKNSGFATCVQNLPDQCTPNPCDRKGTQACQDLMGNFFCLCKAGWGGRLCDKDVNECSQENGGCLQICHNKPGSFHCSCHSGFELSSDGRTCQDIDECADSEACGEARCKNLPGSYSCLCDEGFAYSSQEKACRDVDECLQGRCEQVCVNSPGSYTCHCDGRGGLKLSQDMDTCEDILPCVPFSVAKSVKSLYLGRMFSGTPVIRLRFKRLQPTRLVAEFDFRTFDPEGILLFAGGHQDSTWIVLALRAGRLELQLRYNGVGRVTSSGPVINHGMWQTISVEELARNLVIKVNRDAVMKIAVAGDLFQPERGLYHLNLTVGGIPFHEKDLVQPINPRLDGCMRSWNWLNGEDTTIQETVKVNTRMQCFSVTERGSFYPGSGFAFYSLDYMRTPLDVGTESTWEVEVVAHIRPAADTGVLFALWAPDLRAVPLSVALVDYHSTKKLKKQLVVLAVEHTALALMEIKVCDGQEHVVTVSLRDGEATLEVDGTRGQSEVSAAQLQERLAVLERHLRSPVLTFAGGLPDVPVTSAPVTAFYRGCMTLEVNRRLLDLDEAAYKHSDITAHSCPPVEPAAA


How the values were obtained:
[1] = biological target: T1, C-terminally FLAG-tagged rat Gas6 …; assay: ELISA: rGas6-F (1 µg/mL) captured on coated anti-FLAG M2 antibody; biotinylated test antibody; streptavidin-HRP/TMB; absorbance 450-570 nm, N=2 (Example 6) [C]
Experimental: First, 2 μg/mL anti-FLAG antibody [Monoclonal ANTI-FLAG M2 antibody produced in mouse (manufactured by Sigma-Aldrich Co. LLC) diluted with PBS (manufactured by Nacalai Tesque, Inc.)] was dispensed at 50 μL/well to a 96-well plate for ELISA (manufactured by Nalge Nunc International), and the plate was left standing overnight at 4° C. for adsorption. After removal of the immobilization solution, 1% BSA-PBS (manufactured by Nacalai Tesque, Inc.) was added thereto at 300 μL/well, and the plate was left standing at room temperature for 1 hour for blocking and washed five times with Tween 20-PBS (manufactured by Wako Pure Chemical Industries Ltd.).
Each antibody solution was dispensed thereto at 50 μL/well, and the plate was left standing at room temperature for 1 hour. This plate was washed five times with Tween 20-PBS. Then, Streptavidin HRP Conjugate (manufactured by R&D Systems, Inc.) diluted 200-fold with 1% BSA-PBS was dispensed thereto at 50 μL/well, and the plate was left standing at room temperature for 1 hour. This plate was washed five times with Tween 20-PBS, and TMB (manufactured by Sigma-Aldrich Co. LLC) was added thereto at 50 μL/well and reacted. […] The absorbance at a sample wavelength of 450 nm and a reference wavelength of 570 nm (450 nm-570 nm) was measured using a plate reader.

[2] = biological target: T2, C-terminally FLAG-tagged human Gas6 …; assay: cell-based or functional assay

| EC50 (read off the curve) [1] [ng/mL] | antibody:Gas6 molar concentration ratio at complete inhibition of reporter activation [2] | Binder |
| --- | --- | --- |
| ~5 | 2 antibody:Gas6 molar ratio | anti-human Gas6 mouse monoclonal antibody KM5320 (KM5320-mKG1 antibody) (antibody, V domains shown, Hybridoma-derived mouse IgG1, kappa; also called KM5320 antibody) VH: QIQLVQSGPELKKPGETVKISCKASGYTFTNYGMNWVKQAPGKGLKWMGWINTETGEPTYSDDFKGRFAFSLETSATTAYLQINNLRNEDMATYFCAREDGYYGTLDYWGQGTSVTVSS VL: SIVMTQTPKFLLVSAGDRVTITCKASQSVSNDVAWYQQKPGQSPKVLIYYASNRYTGVPDRFTGSGYGTDFTFTISTVQAEDLAVYFCQQDYSSPWTFGGGTKLEIK |
| ~4 | 2 antibody:Gas6 molar ratio | anti-human Gas6 mouse monoclonal antibody KM5321 (KM5321-mKG1 antibody) (antibody, V domains shown, Hybridoma-derived mouse IgG1, kappa; also called KM5321 antibody) VH: QIQLVQSGPELKKPGETVKISCRASGYTFTNYGMNWVKQAPGKGLKWMGWINTNTGEPTYTEEFKGRFAFSLETSATTAYLQINDLKNEDTATYFCARDEGWFVYWGQGTLITVSA VL: ETTVTQSPASLSVATGEKVTIRCITSTDIDDDMNWYQQKPGEPPKLLISEGNTLRPGVPSRFSSSGYGTDFVFTIENTLSEDVADYYCLQTDSVPLTFGAGTKLELK |
